The text below walks through data of patent publication US20100330089A1 (Pfizer, published 2010).

Experiment [1] has as its target T1, Human CD20 (human) (UniProt P11836).
T1 sequence: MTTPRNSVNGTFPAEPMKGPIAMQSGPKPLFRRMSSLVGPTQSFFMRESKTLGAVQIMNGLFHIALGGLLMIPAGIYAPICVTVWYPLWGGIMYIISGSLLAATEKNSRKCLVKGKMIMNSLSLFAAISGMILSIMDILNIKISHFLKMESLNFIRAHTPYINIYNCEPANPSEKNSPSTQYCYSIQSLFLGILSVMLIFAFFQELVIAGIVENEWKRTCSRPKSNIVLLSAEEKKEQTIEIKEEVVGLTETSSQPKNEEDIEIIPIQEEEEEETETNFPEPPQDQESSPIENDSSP
As to the kind of experiment: flow cytometry on primary human B cells, binder at 10 ug/ml (first block). A general note: In flow cytometry, cells or beads pass a laser one at a time.

Experiment [2] deals with T1, Human CD20 (human). Briefly: flow cytometry on primary human B cells, binder at 0.12 ug/ml (second block).
Experiment [3] deals with T1, Human CD20 (human). As to the kind of experiment: flow cytometry on primary human B cells, binder at 0.37 ug/ml (first block).
Experiment [4] has as its target T1, Human CD20 (human). As to the kind of experiment: flow cytometry on primary human B cells, binder at 1.1 ug/ml (first block).
For experiment [5], the target named is T1, Human CD20 (human). As to the kind of experiment: flow cytometry on primary human B cells, binder at 1.1 ug/ml (second block).
In experiment [6] the target is T1, Human CD20 (human). As to the kind of experiment: flow cytometry on primary human B cells, binder at 0.04 ug/ml (second block).
Experiment [7] has as its target T1, Human CD20 (human). Briefly: flow cytometry on primary human B cells, binder at 0.12 ug/ml (first block).
Experiment [8] has as its target T1, Human CD20 (human). Briefly: cell-based or functional assay.
Experiment [9] has as its target T1, Human CD20 (human). As to the kind of experiment: flow cytometry on primary human B cells, binder at 10 ug/ml (second block).
In the next experiment the target is CD20 (primary B cells) (UniProt P11836). Briefly: flow cytometry. The note with it: Fc fusion.
Experiment [10] has as its target T2, Human CD20 (human, UniProt P11836 1-297).
T2 construct: also called Bp35
T2 sequence: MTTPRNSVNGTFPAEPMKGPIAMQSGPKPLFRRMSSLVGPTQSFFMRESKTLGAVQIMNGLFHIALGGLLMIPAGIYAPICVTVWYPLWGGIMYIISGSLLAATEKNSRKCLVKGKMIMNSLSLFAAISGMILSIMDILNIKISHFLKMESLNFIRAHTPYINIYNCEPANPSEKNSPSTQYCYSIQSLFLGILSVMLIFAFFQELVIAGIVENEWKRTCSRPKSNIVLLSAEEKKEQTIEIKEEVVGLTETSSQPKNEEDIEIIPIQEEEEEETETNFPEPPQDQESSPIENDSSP
Briefly: flow cytometry on primary human B cells, binder at 10 ug/ml (first block).

In experiment [11] the target is T2, Human CD20. Briefly: flow cytometry on primary human B cells, binder at 0.12 ug/ml (second block).
Experiment [12] has as its target T2, Human CD20. Briefly: flow cytometry on primary human B cells, binder at 1.1 ug/ml (second block).
Experiment [13] addresses T2, Human CD20. Briefly: flow cytometry on primary human B cells, binder at 0.04 ug/ml (second block).
The target of experiment [14] is T2, Human CD20. Briefly: flow cytometry on primary human B cells, binder at 0.12 ug/ml (first block).
For experiment [15], the target named is T2, Human CD20. Briefly: cell-based or functional assay.
Experiment [16] addresses T2, Human CD20. Briefly: flow cytometry on primary human B cells, binder at 10 ug/ml (second block).
Experiment [17] deals with T2, Human CD20. As to the kind of experiment: flow cytometry on five human B-lymphoma cell lines. On the procedure: (§1) Each of these cell lines was derived from a distinct non-Hodgkin's B-cell lymphoma patient. Briefly, increasing concentrations of CD20-binders were incubated with 100,000 BCL for 30 min at 4° C. Cells were then washed twice with PBS containing 1% BSA to remove unbound antibody and then a FITC labeled goat anti-human (H+ L) secondary antibody (100 fold diluted) was added for 30 min at 4° C. The cells were again washed twice to remove unbound secondary antibody and then resuspended in 1% formaldehyde (in PBS) with 1% BSA. Fluorescence intensity of each sample was measured using a Becton Dickinson FACSORT flow cytometer. Results are expressed as the geometric mean (GeoMean) of the fluorescent intensity.

In experiment [18] the target is T2, Human CD20. As to the kind of experiment: flow cytometry on NU-DHL1, Ramos, SU-DHL4, SU-DHL5 and WSU-DLCL2 cells; confirmed by immunofluorescence on Ramos and WSU-DLCL2. On the procedure: as §1

Molecule RITUXAN (rituximab) (antibody) gave an MFI with Human CD20 (human) [1] of 199 MFI. The MFI with Human CD20 (human) [2] came out at 82.3 MFI. Moreover, the MFI in the experiment with Human CD20 (human) [3] came to 137 MFI. This molecule returned an MFI in the experiment with Human CD20 (human) [4] of 173 MFI. This molecule had an MFI in the experiment with Human CD20 (human) [5] of 93 MFI. The same molecule showed an MFI with Human CD20 (human) [6] of 43.1 MFI. In the experiment with Human CD20 (human) [7], this molecule yielded an MFI of 106 MFI. In the experiment with Human CD20 (human) [8], this molecule had a % lysis (CDC on Ramos cells), 0.12 ug/ml of 56.5 % lysis; a % lysis (CDC on Ramos cells), 0.37 ug/ml of 60.2 % lysis; a % lysis (CDC on Ramos cells), 1.1 ug/ml of 57.1 % lysis; a % lysis (CDC on Ramos cells), 10 ug/ml of 82.5 % lysis. In the experiment with Human CD20 (human) [8], this molecule yielded a % lysis (CDC on Ramos cells), 1 nm of 67.6 % lysis; a % lysis (CDC on Ramos cells), 4 nm of 65.1 % lysis; a % lysis (CDC on Ramos cells), 11 nm of 66.3 % lysis; a % lysis (CDC on Ramos cells), 100 nm of 81.9 % lysis. In the experiment with Human CD20 (human) [9], this molecule gave an MFI of 172 MFI.
Consider TRU-015, for which the EC50 with CD20 (primary B cells) is 0.279 µg/mL.
In the case of TRU-015 (Fc fusion), the MFI with Human CD20 [10] worked out at 149 MFI. Also, in the experiment with Human CD20 [11], the MFI was found to be 31.4 MFI. In the experiment with Human CD20 [12], this molecule came in with an MFI of 53.4 MFI. The MFI with Human CD20 [13] stood at 19.9 MFI. The same molecule displayed an MFI in the experiment with Human CD20 [14] of 42.8 MFI. Moreover, in the experiment with Human CD20 [15], the % lysis (CDC on Ramos cells), 0.12 ug/ml amounted to 16.3 % lysis; the % lysis (CDC on Ramos cells), 0.37 ug/ml is 38.8 % lysis; the % lysis (CDC on Ramos cells), 1.1 ug/ml came to 56.1 % lysis; the % lysis (CDC on Ramos cells), 10 ug/ml is 67.7 % lysis. In the experiment with Human CD20 [15], this molecule came in with a % lysis (CDC on Ramos cells), 1 nm of 19.8 % lysis; a % lysis (CDC on Ramos cells), 4 nm of 26.2 % lysis; a % lysis (CDC on Ramos cells), 11 nm of 49.7 % lysis; a % lysis (CDC on Ramos cells), 100 nm of 86.1 % lysis. The MFI with Human CD20 [16] came to 124 MFI.

B1: 018008 (Fc fusion, not shown: a dimerising Fc or GST)
chain: EIVLTQSPATLSLSPGERATLSCRASQSVSYMHWYQQKPGQAPRLLIYAPSNLASGIPARFSGSGSGTDFTLTISSLEPEDFAVYYCQQWSFNPPTFGQGTKVEIKDGGGSGGGGSGGGGTGEVQLVQSGAEVKKPGESLKISCKGSGYSFTSYNMHWVRQMPGKGLEWMGAIYPGNGDTSYNQKFKGQVTISADKSISTAYLQWSSLKASDTAMYYCARVVYYSNSYWYFDLWGRGTLVTVSS
notes: Humanized SMIP as named without a hinge suffix
Consider B1, for which the binding result with Human CD20 [17] is “binds”.

B2: 2Lm20-4 (Fc fusion, not shown: a dimerising Fc or GST)
chain: EIVLTQSPATLSLSPGERATLSCRASSSVSYIVWYQQKPGQAPRLLIYAPSNLASGIPARFSGSGSGTDFTLTISSLEPEDFAVYYCQQWSFNPPTFGQGTKVEIKDGGGSGGGGSGGGGSSQVQLVQSGAEVKKPGASVKVSCKASGYTFTSYNMHWVRQAPGQGLEWMGAIYPGNGDTSYNQKFKGRVTMTRDTSTSTVYMELSSLRSEDTAVYYCARSYYSNSYWYFDLWGRGTLVTVSS
notes: as for B1
In the case of B2, in the experiment with Human CD20 [17], the binding result is listed as “binds”.

B3: 018011 (Fc fusion)
chain: EIVLTQSPATLSLSPGERATLSCRASQSVSYIVWYQQKPGQAPRLLIYAPSNLASGIPARFSGSGSGTDFTLTISSLEPEDFAVYYCQQWSFNPPTFGQGTKVEIKDGGGSGGGGSGGGGTGEVQLVQSGAEVKKPGESLKISCKGSGYSFTSYNMHWVRQMPGKGLEWMGAIYPGNGDTSYNQKFKGQVTISADKSISTAYLQWSSLKASDTAMYYCARSYYSNSYWYFDLWGRGTLVTVSS
notes: not shown: called human IgG1
In the case of B3, the binding result in the experiment with Human CD20 [18] is “binds”.

The term EC50 denotes the concentration needed to bring the measured effect to its halfway point.
